The target of the assay is Taxol-stabilized microtubules from porcine brain tubulin, P02550. Put plainly: microtubule pelleting assay. The settings on record: chain shown with the change;, read off a plot.
Taxol-stabilized microtubules from porcine brain tubulin, P02550, sequence (P02550 other isoform, or with tags, fused parts or gaps, chain 1 of 2): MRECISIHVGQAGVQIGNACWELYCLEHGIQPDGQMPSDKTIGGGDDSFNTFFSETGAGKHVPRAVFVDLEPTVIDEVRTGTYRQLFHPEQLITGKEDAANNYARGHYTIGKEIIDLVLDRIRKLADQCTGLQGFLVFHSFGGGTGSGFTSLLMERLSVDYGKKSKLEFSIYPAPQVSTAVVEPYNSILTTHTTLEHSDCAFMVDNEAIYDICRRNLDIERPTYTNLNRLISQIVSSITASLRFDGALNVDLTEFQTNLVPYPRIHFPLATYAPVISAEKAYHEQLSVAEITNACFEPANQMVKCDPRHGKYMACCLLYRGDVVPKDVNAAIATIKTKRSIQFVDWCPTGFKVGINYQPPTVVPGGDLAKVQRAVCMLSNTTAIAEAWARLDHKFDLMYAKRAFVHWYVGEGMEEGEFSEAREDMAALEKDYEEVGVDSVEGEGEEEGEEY
Taxol-stabilized microtubules from porcine brain tubulin, P02550, sequence (chain, as listed by the source, chain 2 of 2): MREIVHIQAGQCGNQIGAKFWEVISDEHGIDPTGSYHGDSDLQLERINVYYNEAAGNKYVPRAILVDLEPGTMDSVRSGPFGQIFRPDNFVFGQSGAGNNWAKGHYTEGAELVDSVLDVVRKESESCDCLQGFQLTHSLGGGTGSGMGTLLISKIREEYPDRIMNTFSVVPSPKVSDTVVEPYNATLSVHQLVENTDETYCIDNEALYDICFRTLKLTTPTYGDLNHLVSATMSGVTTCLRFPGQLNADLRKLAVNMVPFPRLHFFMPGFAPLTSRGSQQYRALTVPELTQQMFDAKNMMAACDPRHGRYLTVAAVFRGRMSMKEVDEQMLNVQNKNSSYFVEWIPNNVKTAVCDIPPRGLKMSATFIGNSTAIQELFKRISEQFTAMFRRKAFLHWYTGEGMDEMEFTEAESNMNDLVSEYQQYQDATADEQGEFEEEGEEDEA

B1: LRRK2^RCKW (catalytic half of LRRK2: ROC, COR, kinase and WD40 domains), wild type, Q5S007 R1384A; K1385A (protein)
chain: KKAVPYNRMKLMIVGNTGSGKTTLLQQLMKTKKSDLGMQSATVGIDVKDWPIQIRDKAARDLVLNVWDFAGREEFYSTHPHFMTQRALYLAVYDLSKGQAEVDAMKPWLFNIKARASSSPVILVGTHLDVSDEKQRKACMSKITKELLNKRGFPAIRDYHFVNATEESDALAKLRKTIINESLNFKIRDQLVVGQLIPDCYVELEKIILSERKNVPIEFPVIDRKRLLQLVRENQLQLDENELPHAVHFLNESGVLLHFQDPALQLSDLYFVEPKWLCKIMAQILTVKVEGCPKHPKGIISRRDVEKFLSKKRKFPKNYMSQYFKLLEKFQIALPIGEEYLLVPSSLSDHRPVIELPHCENSEIIIRLYEMPYFPMGFWSRLINRLLEISPYMLSGRERALRPNRMYWRQGIYLNWSPEAYCLVGSEVLDNHPESFLKITVPSCRKGCILLGQVVDHIDSLMEEWFPGLLEIDICGEGETLLKKWALYSFNDGEEHQKILLDDLMKKAEEGDLLVNPDQPRLTIPISQIAPDLILADLPRNIMLNNDELEFEQAPEFLLGDGSFGSVYRAAYEGEEVAVKIFNKHTSLRLLRQELVVLCHLHHPSLISLLAAGIRPRMLVMELASKGSLDRLLQQDKASLTRTLQHRIALHVADGLRYLHSAMIIYRDLKPHNVLLFTLYPNAAIIAKIADYGIAQYCCRMGIKTSEGTPGFRAPEVARGNVIYNQQADVYSFGLLLYDILTTGGRIVEGLKFPNEFDELEIQGKLPDPVKEYGCAPWPMVEKLIKQCLKENPQERPTSAQVFDILNSAELVCLTRRILLPKNVIVECMVATHHNSRNASIWLGCGHTDRGQLSFLDLNTEGYTSEEVADSRILCLALVHLPVEKESWIVSGTQSGTLLVINTEDGKKRHTLEKMTDSVTCLYCNSFSKQSKQKNFLLVGTADGKLAIFEDKTVKLKGAAPLKILNIGNVSTPLMCLSESTNSTERNVMWGGCGTKIFSFSNDFTIQKLIETRTSQLFSYAAFSDSNIITVVVDTALYIAKQNSPVVEVWDKKTEKLCGLIDCVHFLREVMVKENKESKHKMSYSGRVKTLCLQKNTALWIGTGGGHILLLDLSTRRLIRVIYNFCNSVRVMMTAQLGSLKNVMLVLGYNRKNTEGTQKQKEIQSCLTVWDINLPHEVQNLEKHIEVRKELAEKMRRTSVE
Turning to B1, the response (fraction microtubule bound) (parent: est. 0.78) stood at 0.35.

B2: LRRK2^RCKW (catalytic half of LRRK2: ROC, COR, kinase and WD40 domains), wild type, Q5S007 R1731D; S2345D (protein)
chain: KKAVPYNRMKLMIVGNTGSGKTTLLQQLMKTKKSDLGMQSATVGIDVKDWPIQIRDKRKRDLVLNVWDFAGREEFYSTHPHFMTQRALYLAVYDLSKGQAEVDAMKPWLFNIKARASSSPVILVGTHLDVSDEKQRKACMSKITKELLNKRGFPAIRDYHFVNATEESDALAKLRKTIINESLNFKIRDQLVVGQLIPDCYVELEKIILSERKNVPIEFPVIDRKRLLQLVRENQLQLDENELPHAVHFLNESGVLLHFQDPALQLSDLYFVEPKWLCKIMAQILTVKVEGCPKHPKGIISRRDVEKFLSKKRKFPKNYMSQYFKLLEKFQIALPIGEEYLLVPSSLSDHRPVIELPHCENSEIIIRLYEMPYFPMGFWSRLINRLLEISPYMLSGRERALRPNDMYWRQGIYLNWSPEAYCLVGSEVLDNHPESFLKITVPSCRKGCILLGQVVDHIDSLMEEWFPGLLEIDICGEGETLLKKWALYSFNDGEEHQKILLDDLMKKAEEGDLLVNPDQPRLTIPISQIAPDLILADLPRNIMLNNDELEFEQAPEFLLGDGSFGSVYRAAYEGEEVAVKIFNKHTSLRLLRQELVVLCHLHHPSLISLLAAGIRPRMLVMELASKGSLDRLLQQDKASLTRTLQHRIALHVADGLRYLHSAMIIYRDLKPHNVLLFTLYPNAAIIAKIADYGIAQYCCRMGIKTSEGTPGFRAPEVARGNVIYNQQADVYSFGLLLYDILTTGGRIVEGLKFPNEFDELEIQGKLPDPVKEYGCAPWPMVEKLIKQCLKENPQERPTSAQVFDILNSAELVCLTRRILLPKNVIVECMVATHHNSRNASIWLGCGHTDRGQLSFLDLNTEGYTSEEVADSRILCLALVHLPVEKESWIVSGTQSGTLLVINTEDGKKRHTLEKMTDSVTCLYCNSFSKQSKQKNFLLVGTADGKLAIFEDKTVKLKGAAPLKILNIGNVSTPLMCLSESTNSTERNVMWGGCGTKIFSFSNDFTIQKLIETRTSQLFDYAAFSDSNIITVVVDTALYIAKQNSPVVEVWDKKTEKLCGLIDCVHFLREVMVKENKESKHKMSYSGRVKTLCLQKNTALWIGTGGGHILLLDLSTRRLIRVIYNFCNSVRVMMTAQLGSLKNVMLVLGYNRKNTEGTQKQKEIQSCLTVWDINLPHEVQNLEKHIEVRKELAEKMRRTSVE
Take B2: the response (fraction microtubule bound) (parent: est. 0.70) was 0.1.

B3: LRRK2^RCKW (catalytic half of LRRK2: ROC, COR, kinase and WD40 domains), wild type, Q5S007 K1358A; K1359A (protein)
chain: KKAVPYNRMKLMIVGNTGSGKTTLLQQLMKTAASDLGMQSATVGIDVKDWPIQIRDKRKRDLVLNVWDFAGREEFYSTHPHFMTQRALYLAVYDLSKGQAEVDAMKPWLFNIKARASSSPVILVGTHLDVSDEKQRKACMSKITKELLNKRGFPAIRDYHFVNATEESDALAKLRKTIINESLNFKIRDQLVVGQLIPDCYVELEKIILSERKNVPIEFPVIDRKRLLQLVRENQLQLDENELPHAVHFLNESGVLLHFQDPALQLSDLYFVEPKWLCKIMAQILTVKVEGCPKHPKGIISRRDVEKFLSKKRKFPKNYMSQYFKLLEKFQIALPIGEEYLLVPSSLSDHRPVIELPHCENSEIIIRLYEMPYFPMGFWSRLINRLLEISPYMLSGRERALRPNRMYWRQGIYLNWSPEAYCLVGSEVLDNHPESFLKITVPSCRKGCILLGQVVDHIDSLMEEWFPGLLEIDICGEGETLLKKWALYSFNDGEEHQKILLDDLMKKAEEGDLLVNPDQPRLTIPISQIAPDLILADLPRNIMLNNDELEFEQAPEFLLGDGSFGSVYRAAYEGEEVAVKIFNKHTSLRLLRQELVVLCHLHHPSLISLLAAGIRPRMLVMELASKGSLDRLLQQDKASLTRTLQHRIALHVADGLRYLHSAMIIYRDLKPHNVLLFTLYPNAAIIAKIADYGIAQYCCRMGIKTSEGTPGFRAPEVARGNVIYNQQADVYSFGLLLYDILTTGGRIVEGLKFPNEFDELEIQGKLPDPVKEYGCAPWPMVEKLIKQCLKENPQERPTSAQVFDILNSAELVCLTRRILLPKNVIVECMVATHHNSRNASIWLGCGHTDRGQLSFLDLNTEGYTSEEVADSRILCLALVHLPVEKESWIVSGTQSGTLLVINTEDGKKRHTLEKMTDSVTCLYCNSFSKQSKQKNFLLVGTADGKLAIFEDKTVKLKGAAPLKILNIGNVSTPLMCLSESTNSTERNVMWGGCGTKIFSFSNDFTIQKLIETRTSQLFSYAAFSDSNIITVVVDTALYIAKQNSPVVEVWDKKTEKLCGLIDCVHFLREVMVKENKESKHKMSYSGRVKTLCLQKNTALWIGTGGGHILLLDLSTRRLIRVIYNFCNSVRVMMTAQLGSLKNVMLVLGYNRKNTEGTQKQKEIQSCLTVWDINLPHEVQNLEKHIEVRKELAEKMRRTSVE
On to B3, for which, under “parent: est. 0.78”, the response (fraction microtubule bound) amounted to 0.48.

B4: LRRK2^RCKW (catalytic half of LRRK2: ROC, COR, kinase and WD40 domains), wild type, Q5S007 S2345D (protein)
chain: KKAVPYNRMKLMIVGNTGSGKTTLLQQLMKTKKSDLGMQSATVGIDVKDWPIQIRDKRKRDLVLNVWDFAGREEFYSTHPHFMTQRALYLAVYDLSKGQAEVDAMKPWLFNIKARASSSPVILVGTHLDVSDEKQRKACMSKITKELLNKRGFPAIRDYHFVNATEESDALAKLRKTIINESLNFKIRDQLVVGQLIPDCYVELEKIILSERKNVPIEFPVIDRKRLLQLVRENQLQLDENELPHAVHFLNESGVLLHFQDPALQLSDLYFVEPKWLCKIMAQILTVKVEGCPKHPKGIISRRDVEKFLSKKRKFPKNYMSQYFKLLEKFQIALPIGEEYLLVPSSLSDHRPVIELPHCENSEIIIRLYEMPYFPMGFWSRLINRLLEISPYMLSGRERALRPNRMYWRQGIYLNWSPEAYCLVGSEVLDNHPESFLKITVPSCRKGCILLGQVVDHIDSLMEEWFPGLLEIDICGEGETLLKKWALYSFNDGEEHQKILLDDLMKKAEEGDLLVNPDQPRLTIPISQIAPDLILADLPRNIMLNNDELEFEQAPEFLLGDGSFGSVYRAAYEGEEVAVKIFNKHTSLRLLRQELVVLCHLHHPSLISLLAAGIRPRMLVMELASKGSLDRLLQQDKASLTRTLQHRIALHVADGLRYLHSAMIIYRDLKPHNVLLFTLYPNAAIIAKIADYGIAQYCCRMGIKTSEGTPGFRAPEVARGNVIYNQQADVYSFGLLLYDILTTGGRIVEGLKFPNEFDELEIQGKLPDPVKEYGCAPWPMVEKLIKQCLKENPQERPTSAQVFDILNSAELVCLTRRILLPKNVIVECMVATHHNSRNASIWLGCGHTDRGQLSFLDLNTEGYTSEEVADSRILCLALVHLPVEKESWIVSGTQSGTLLVINTEDGKKRHTLEKMTDSVTCLYCNSFSKQSKQKNFLLVGTADGKLAIFEDKTVKLKGAAPLKILNIGNVSTPLMCLSESTNSTERNVMWGGCGTKIFSFSNDFTIQKLIETRTSQLFDYAAFSDSNIITVVVDTALYIAKQNSPVVEVWDKKTEKLCGLIDCVHFLREVMVKENKESKHKMSYSGRVKTLCLQKNTALWIGTGGGHILLLDLSTRRLIRVIYNFCNSVRVMMTAQLGSLKNVMLVLGYNRKNTEGTQKQKEIQSCLTVWDINLPHEVQNLEKHIEVRKELAEKMRRTSVE
Take B4: for the setting “parent: est. 0.70”, the response (fraction microtubule bound) came to 0.53.

The values above are taken from publication PMC9758056.
